# Values of other authors, collected in US20040071657A1, “Chemoattractant recruitment of dendritic cells for enhancement of immunization” (priority 2003, published 2004).
# B1: Flt3-L: Flt3 ligand, a growth factor polypeptide that promotes dendritic cell growth (protein, UniProt P49771 27-235, looked up)
# Fms-related tyrosine kinase 3 …: TQDCSFQHSPISSDFAVKIRELSDYLLQDYPVTVASNLQDEELCGGLWRLVLAQRWMERLKTVAGSKMQGLLERVNTEIHFVTKCAFQPPPSCLRFVQTNISRLLQETSEQLVALKPWITRQNFSRCLELQCQPDSSTLPPPWSPRPLEATAPTAPQPPLLLLLLLPVGLLLLAAAWCLHWQRTRRRTPRPGEQVPPVPSPQDLLLVEH
# Test system: circulating DC
# Conditions: in vivo administration to mice
molecule,measurement,value
B1,increase in the number of circulating DC,10-30 fold
